For the series, the system named is MS2 coat protein. The series can be described thus: apparent KD of MS2 coat protein; higher = weaker reporter binding. The note with it: Eterna round: R107. The gist of the method: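 Designed RNA switches were made by on-chip transcription from Illumina sequencing clusters and then titrated with SNAP-549-labelled MS2 coat protein. Twofold steps ran from 0.7 or 1.5 nM to 3 µM, each lasting 0.8–1.5 h early and 10–20 min late, in 100 mM Tris-HCl pH 7.5, 80 mM KCl, 4 mM MgCl2, without or with constant ligand. Apparent KD is the per-design median of normalised cluster binding-curve fits.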

The mark [1] stands for this setting: input ligand: theophylline 20 uM.
The mark [2] stands for this setting: input ligand: theophylline 2 mM.
The mark [3] stands for this setting: input ligand: tryptophan 2.4 mM.

The source of these data is the supplement of paper PMC9170038.

Take “GGAUAGGACACGGCCGCCACUACCUAGGAUACUAGAAACAUUUCCUCACAUGAGGAUCACCCAUGUAGGACCGGGUGUCCUAUCG”: the “apparent KD of MS2 coat protein” value by setting is: (input ligand: arginine 13.2 mM) 106 nM; under setting [1], 284 nM; under setting [2], 351 nM.
With “GGAUGAAACUGAAGGAGCGAGAUCACAAGAUUGGGUCUAACAUGAGGAUCACCCAUGUAAUCUCAGGUAGGUCGCAGUGUCCCUU [Exclusion Arginine B GF 12]”, the “apparent KD of MS2 coat protein” value runs as follows: (input ligand: arginine 13.2 mM) 33 nM; (input ligand: none) 26.6 nM; under setting [1], 42 nM; under setting [2], 43.5 nM; under setting [3], 31.6 nM.
For the sequence “GGAUGCGGCACGGCCGCCACUGCGGUGGUGUGACAUGAGGAUCACCCAUGUUGUCAUGCGGCCCUUAGGACCGGGUGGCGUGUCC [#1 Exclusion - Tryptophan B Attempt #19 (HarryS)]”, the “apparent KD of MS2 coat protein” value (input ligand: arginine 13.2 mM) is 37.2 nM, the “apparent KD of MS2 coat protein” value under setting [1] was 57.4 nM and the “apparent KD of MS2 coat protein” value under setting [2] was 56.3 nM.
For the sequence “GGAUGGAACUCGGCCGCCACUGGUGAUCCUAAUGUACAUGAGGAUCACCCAUGUACAUGAGAAGAUAGGACCGGGAGAUAAGGGA [Tryptophan B V4 (+4G)]”, the “apparent KD of MS2 coat protein” value (input ligand: arginine 13.2 mM) was 19.9 nM; the “apparent KD of MS2 coat protein” value (input ligand: none) came out at 19.3 nM; the “apparent KD of MS2 coat protein” value under setting [1] worked out at 24.3 nM; the “apparent KD of MS2 coat protein” value under setting [2] amounted to 26.3 nM; the “apparent KD of MS2 coat protein” value under setting [3] stood at 20.7 nM.
“GGCACCAGGAGAAGGAGCGUGAAGACAUGAGGAUCACCCAUGUAGAGGCCCGUACAGGGUUCGCAGGUAGGUCGCUCCUGGUGCC [#1 Same State - Arginine B Attempt #12 (HarryS)]”: the “apparent KD of MS2 coat protein” value runs as follows: (input ligand: arginine 13.2 mM) 19.3 nM; (input ligand: none) 18.4 nM; under setting [1], 27.3 nM; under setting [2], 22.6 nM; under setting [3], 18.8 nM.
On to “GGCACCAGGAGAAGGAGCGUGAAGACAUGAGGAUCACCCAUGUAGAGGCGCCGACGGCGUUCGCAGGUAGGUCGCUCCUGGUGCC [#1 Same State - Arginine B Attempt #16 (HarryS)]”, for which the “apparent KD of MS2 coat protein” value (input ligand: arginine 13.2 mM) came out at 20.9 nM; the “apparent KD of MS2 coat protein” value (input ligand: none) was determined as 21 nM; the “apparent KD of MS2 coat protein” value under setting [1] is 32.3 nM; the “apparent KD of MS2 coat protein” value under setting [2] was found to be 23.5 nM; the “apparent KD of MS2 coat protein” value under setting [3] worked out at 29.3 nM.
On the same counts, the results for “GGCCCUGCGAGCGCUCGCAGGGCCGCGGAUACCAGCGAGGUCCAUCGCCCUUGGCAGCCGAACAUGAGGAUCACCCAUGUCGGUC [#1 Same State - Theophylline A Attempt #11 (HarryS)]” are 11.4 nM, 11.6 nM, 18.7 nM, 28.1 nM and 10.7 nM.
On to “GGCUGUCAUAGGAGGUGAAAUAUACUCGAAGGAGCGUCAUAGUAGGCAGGUAGGUCGCGAGACAUGAGGAUCACCCAUGUAGAGA [yyumullin]”, for which the “apparent KD of MS2 coat protein” value (input ligand: arginine 13.2 mM) was 38.9 nM; the “apparent KD of MS2 coat protein” value (input ligand: none) was found to be 53.9 nM; the “apparent KD of MS2 coat protein” value under setting [1] was 162 nM; the “apparent KD of MS2 coat protein” value under setting [2] was found to be 67.7 nM; the “apparent KD of MS2 coat protein” value under setting [3] worked out at 56.4 nM.
With “GGGCAAGAGGGAAGGAGCGUUAGCUGAGUCACAUGAGGAUCACCCAUGUCGCACGUAGUAUGACAGGUAGGUCGCCCUCUACCCU [SS-ArgB15]”, the “apparent KD of MS2 coat protein” value was found to be 18 nM (input ligand: arginine 13.2 mM); 18.1 nM (input ligand: none); 22.1 nM under setting [1]; 21.6 nM under setting [2]; 18.9 nM under setting [3].
As to “GGGCCCGGGCCGCGCGCGGCCCGGGCCCAACGAGGACCGGUACGGCCGCCACUCGAACGAGUGGGUACAUGAGGAUCACCCAUGU [Aaa]”, the “apparent KD of MS2 coat protein” value is, setting by setting: (input ligand: arginine 13.2 mM) 25.7 nM; (input ligand: none) 27 nM; under setting [1], 41.8 nM; under setting [2], 45 nM; under setting [3], 33.3 nM.
For the sequence “GGGUAAGAUCCGGAUACCAGCGAACAUGAGGAUCACCCAUGUGAAAUAAGAUAGAAUAAACGCCCUUGGCAGCCGAAAUAGAGUU [Same State Theophylline B GF 3]”, the “apparent KD of MS2 coat protein” value reads like this: (input ligand: arginine 13.2 mM) 41.3 nM; under setting [1], 81.9 nM; under setting [3], 88.9 nM.
“GGGUGGUAGGCGGCCGCCACUGAUUUUCAUUUAUAGAUGACAUGAGGAUCACCCAUGUUUAUGUGCAGGACCGGGCCUGCUGUGG [aaaT]”: the “apparent KD of MS2 coat protein” value (input ligand: arginine 13.2 mM) was 102 nM; the “apparent KD of MS2 coat protein” value (input ligand: none) was 68 nM; the “apparent KD of MS2 coat protein” value under setting [1] turned out to be 130 nM; the “apparent KD of MS2 coat protein” value under setting [2] was 137 nM; the “apparent KD of MS2 coat protein” value under setting [3] turned out to be 78.2 nM.
In the case of “GGUCUCUGGAGCGAUACCAGCUUGAUCGUACUAGCCUGGUACAUGAGGAUCACCCAUGUAAGCCCUUGGCAGCGCUCCAGAGACC [#1 Exclusion - Theophylline B Attempt #8 (HarryS)]”, the “apparent KD of MS2 coat protein” value by setting is: (input ligand: arginine 13.2 mM) 11.8 nM; (input ligand: none) 12.7 nM; under setting [1], 15.8 nM; under setting [2], 21.4 nM; under setting [3], 12.1 nM.
In the same order, the values of “GGUGGCGUGACGGAUACCAGCCACCACCGCAAGACCACAUGAGGAUCACCCAUGUUGGGUGGCCCUUGGCAGCUGUCGUGCGGCG [#1 Same State - Theophylline B Attempt #19 (HarryS)]” are 15 nM, 213 nM, 331 nM, 475 nM and 110 nM.
With “GGUGGCUGGAUCGAUACCAGCCACCACCGAUAGACCACAUGAGGAUCACCCAUGUUGGGUGGCCCUUGGCAGCGGUCCAGCUGCC [#1 Same State - Theophylline B Attempt #5 (HarryS)]”, the “apparent KD of MS2 coat protein” value came out at 78.8 nM (input ligand: arginine 13.2 mM); 587 nM (input ligand: none); 1010 nM under setting [1]; 1240 nM under setting [2]; 851 nM under setting [3].
For “GUAAGACAUGAGGAUCACCCAUGUGUCGAUACCAGCCCUGCCUCUGGCCCUUGGCAGCGACUCGCACACCUCGCACUGCACAAGU [theeternabot_sameState_MS2_Theo_A_13]”, the “apparent KD of MS2 coat protein” value amounted to 42.6 nM (input ligand: arginine 13.2 mM), 59.5 nM under setting [1] and 49 nM under setting [3].
